Source: the supplement of paper PMC7877785
± gives the uncertainty stated by the source.

Experiment: self-splicing fitness, log relative to wild type (ln ratio); higher = more splicing; Tetrahymena group I intron in knt gene, E. coli kanamycin selection, DiMSum; sequences stand for … in CUCUCU…GGAGGGAAAAGUUAUCAGGCAUGCACCUGGUAGCUAGUCUUUAAACCAAUAGAUUGCAUCGGUUUAAAAGGCAAGACCGUCAAAUUGCGGGAAAGGGGUCAACAGCCGUUCAGUACCAAGUCUCAGGGGAAACUUUGAGAUGGCCUUGCAAAGGGUAUGGUAAUAAGCUGACGGACAUGGUCCUAACCACGCAGCCAAGUCCUAAGUCAACAGAUCUUCUGUUGAUAUGGAUGCAGUUCACAGACUAAAUGUCGGUCGGGGAAGAUGUAUUCUUCUCAUAAGAUAUAGUCGGACCUCUCCUUAAUGGGAGCUAGCGGAUGAAGUGAUGCAACACUGGAGCCGCUGGGAACUAAUUUGUAUGCGAAAGUAUAUUGAUUAGUUUUGGAGUACUCGUGGUCG
Summary of the method: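 Fitness was computed with DiMSum as the error-weighted combination of replicate fold changes, kanamycin versus none, each normalised to wild type. The library randomised all eight intron nucleotides of the P1ex region, with the intron placed in the knt kanamycin-resistance gene on pET-22b(+) in E. coli BL21(DE3). Six replicate transformations were grown overnight at 37°C or 30°C on LB agar with or without 25 μg/mL kanamycin, plus 100 μg/mL carbenicillin, 50 μM IPTG and 0.2% rhamnose. Pooled colonies were amplicon-sequenced on an Illumina HiSeq 2500.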

Sequence | self-splicing fitness (ln) (30 °C) | self-splicing fitness (ln) (37 °C)
GUAGAGCAAUAUUACGGCGC | -0.386 ± 0.18 | -0.378 ± 0.22
GUAGAGCAAUAUUACGGCUG | -1.04 ± 0.13 | -0.584 ± 0.14
GUAGAGCAAUAUUACGGGAU | -2.01 ± 0.098 | -1.19 ± 0.12
GUAGAGCAAUAUUACGGUAC | -1.54 ± 0.12 | 0.127 ± 0.14
GUAGAGCAAUAUUACGGUGC | -1.15 ± 0.13 | -1 ± 0.19
GUAGAGCAAUAUUACGUAAC | -0.96 ± 0.11 | -0.246 ± 0.14
GUAGAGCAAUAUUACGUACU | -2.23 ± 0.24 | -1.92 ± 0.24
GUAGAGCAAUAUUACGUAGG | -3.28 ± 0.17 | -1.96 ± 0.17
GUAGAGCAAUAUUACGUAUG | -3.88 ± 0.22 | -3.78 ± 0.23
GUAGAGCAAUAUUACGUCUG | -1.6 ± 0.15 | -1.58 ± 0.21
GUAGAGCAAUAUUACGUCUU | -0.122 ± 0.075 | 0.195 ± 0.083
GUAGAGCAAUAUUACGUUCU | -2.74 ± 0.12 | -0.917 ± 0.099
GUAGAGCAAUAUUACGUUGU | -2.53 ± 0.3 | -0.699 ± 0.29
GUAUAGCAAUAUUACGAAAU | -3.05 ± 0.25 | -1.63 ± 0.22
GUAUAGCAAUAUUACGAAUG | -3 ± 0.24 | -2.32 ± 0.28
GUAUAGCAAUAUUACGACGC | -0.42 ± 0.16 | 0.113 ± 0.18
GUAUAGCAAUAUUACGAGCA | -2.06 ± 0.2 | -1.12 ± 0.16
GUAUAGCAAUAUUACGAUGA | -1.62 ± 0.16 | -0.697 ± 0.14
GUAUAGCAAUAUUACGCACA | -1.11 ± 0.13 | 0.279 ± 0.16
GUAUAGCAAUAUUACGCAGA | -2.74 ± 0.32 | -2.71 ± 0.34
GUAUAGCAAUAUUACGCCGA | -2.97 ± 0.41 | -0.946 ± 0.36
GUAUAGCAAUAUUACGGAAC | -3.32 ± 0.15 | -1.77 ± 0.13
GUAUAGCAAUAUUACGGCAC | -0.331 ± 0.3 | 
GUAUAGCAAUAUUACGGGAA |  | -2.54 ± 0.4
GUAUAGCAAUAUUACGGUGU | -3.29 ± 0.15 | -1.38 ± 0.11

Sequence | self-splicing fitness (ln) (30 °C) | self-splicing fitness (ln) (37 °C)
GUAUAGCAAUAUUACGUGAA | -3.69 ± 0.25 | -1.67 ± 0.17
GUAUAGCAAUAUUACGUGCU | -2.77 ± 0.16 | -1.91 ± 0.22
GUAUAGCAAUAUUACGUGUC | -4.58 ± 0.39 | -1.42 ± 0.14
GUAUAGCAAUAUUACGUGUG | -3.28 ± 0.14 | -2 ± 0.13
GUAUAGCAAUAUUACGUUUU | -1.97 ± 0.2 | -2.37 ± 0.28
GUCAAGCAAUAUUACGAAGG | -4.64 ± 0.2 | -3.95 ± 0.36
GUCAAGCAAUAUUACGAAGU | -2.51 ± 0.092 | -1.16 ± 0.1
GUCAAGCAAUAUUACGACCU | -3.31 ± 0.41 | -0.756 ± 0.46
GUCAAGCAAUAUUACGAGUU | -3.15 ± 0.15 | -0.638 ± 0.093
GUCAAGCAAUAUUACGAUUC | -1.76 ± 0.17 | 0.0525 ± 0.15
GUCAAGCAAUAUUACGCAAC | -4.34 ± 0.26 | -2.36 ± 0.34
GUCAAGCAAUAUUACGCCCU | -0.585 ± 0.16 | 0.51 ± 0.15
GUCAAGCAAUAUUACGCCGC | -2.83 ± 0.28 | -2.35 ± 0.46
GUCAAGCAAUAUUACGCGCG | -2 ± 0.13 | -1.32 ± 0.15
GUCAAGCAAUAUUACGCGGG | -4.2 ± 0.2 | -3.33 ± 0.24
GUCAAGCAAUAUUACGGCCC | -0.498 ± 0.33 | 
GUCAAGCAAUAUUACGGGAU | -5.19 ± 0.27 | -2.96 ± 0.21
GUCAAGCAAUAUUACGGGCG | -3.08 ± 0.17 | -0.583 ± 0.13
GUCAAGCAAUAUUACGGGGA |  | -2.77 ± 0.44
GUCAAGCAAUAUUACGGUAC | -3.07 ± 0.15 | -0.924 ± 0.11
GUCAAGCAAUAUUACGGUGA | -2.82 ± 0.21 | -2.22 ± 0.21
GUCAAGCAAUAUUACGUAAG | -2.15 ± 0.073 | -1.57 ± 0.11
GUCAAGCAAUAUUACGUAGG | -3.17 ± 0.14 | -2.28 ± 0.15
GUCAAGCAAUAUUACGUUCG | -2.63 ± 0.12 | -2.1 ± 0.15
GUCCAGCAAUAUUACGACAA | -1.57 ± 0.14 | -0.902 ± 0.11

Sequence | self-splicing fitness (ln) (30 °C) | self-splicing fitness (ln) (37 °C)
GUCCAGCAAUAUUACGACAC | 1.02 ± 0.18 | 0.572 ± 0.24
GUCCAGCAAUAUUACGACGG | -3.49 ± 0.2 | -2.66 ± 0.23
GUCCAGCAAUAUUACGAGGG | -2.29 ± 0.24 | -1.78 ± 0.24
GUCCAGCAAUAUUACGCACA | -1 ± 0.16 | 0.0214 ± 0.12
GUCCAGCAAUAUUACGCCAU | -2.78 ± 0.15 | -1.48 ± 0.14
GUCCAGCAAUAUUACGCCGG | -2.64 ± 0.17 | -2.69 ± 0.31
GUCCAGCAAUAUUACGCCUC | -0.866 ± 0.12 | 0.705 ± 0.15
GUCCAGCAAUAUUACGCUCG | -0.909 ± 0.15 | -1.3 ± 0.22
GUCCAGCAAUAUUACGGAAG | -0.697 ± 0.079 | 0.124 ± 0.084
GUCCAGCAAUAUUACGUCCC | -0.702 ± 0.12 | 0.424 ± 0.12
GUCCAGCAAUAUUACGUCGA | -0.796 ± 0.2 | -0.589 ± 0.19
GUCCAGCAAUAUUACGUCUU | -0.409 ± 0.081 | 0.275 ± 0.092
GUCCAGCAAUAUUACGUGAA | 0.0486 ± 0.079 | 0.617 ± 0.098
GUCCAGCAAUAUUACGUGCA | -1.55 ± 0.09 | -0.54 ± 0.1
GUCCAGCAAUAUUACGUGCU | -4.08 ± 0.46 | 0.0205 ± 0.18
GUCCAGCAAUAUUACGUGUU | -1.52 ± 0.055 | -0.617 ± 0.068
GUCCAGCAAUAUUACGUUGA | -0.801 ± 0.057 | -0.239 ± 0.071
GUCCAGCAAUAUUACGUUGG | -3.27 ± 0.15 | -2.13 ± 0.17
GUCGAGCAAUAUUACGACCU |  | -1.74 ± 0.26
GUCGAGCAAUAUUACGACGA | -3.05 ± 0.35 | -1.28 ± 0.21
GUCGAGCAAUAUUACGACUA | -1.67 ± 0.23 | -1.28 ± 0.18
GUCGAGCAAUAUUACGAUGU | -0.956 ± 0.059 | -0.601 ± 0.084
GUCGAGCAAUAUUACGCACU | -1.47 ± 0.14 | -0.953 ± 0.18
GUCGAGCAAUAUUACGCAUG | -3.47 ± 0.25 | -2.43 ± 0.22
GUCGAGCAAUAUUACGCAUU | -2.45 ± 0.27 | -0.95 ± 0.25

Sequence | self-splicing fitness (ln) (30 °C) | self-splicing fitness (ln) (37 °C)
GUCGAGCAAUAUUACGCCAU | -2.99 ± 0.28 | -2.4 ± 0.24
GUCGAGCAAUAUUACGCCUU | -1.46 ± 0.28 | -1.77 ± 0.41
GUCGAGCAAUAUUACGCGUG | -1.25 ± 0.16 | -1.24 ± 0.21
GUCGAGCAAUAUUACGCGUU | -1.64 ± 0.11 | -0.556 ± 0.14
GUCGAGCAAUAUUACGCUGA |  | -2.01 ± 0.43
GUCGAGCAAUAUUACGGACG | -1.43 ± 0.18 | -0.738 ± 0.21
GUCGAGCAAUAUUACGGCCC |  | -1.43 ± 0.4
GUCGAGCAAUAUUACGGCGC | -0.811 ± 0.25 | -0.631 ± 0.44
GUCGAGCAAUAUUACGGCGU | -0.43 ± 0.19 | -0.689 ± 0.14
GUCGAGCAAUAUUACGGUAC | -1.98 ± 0.11 | -1.91 ± 0.16
GUCGAGCAAUAUUACGGUCG | -2.44 ± 0.22 | -1.94 ± 0.28
GUCGAGCAAUAUUACGGUCU | -3.35 ± 0.28 | -1.12 ± 0.18
GUCGAGCAAUAUUACGUGUA | -3.26 ± 0.2 | -2.12 ± 0.19
GUCUAGCAAUAUUACGAACA | -1.13 ± 0.13 | -0.831 ± 0.11
GUCUAGCAAUAUUACGAACC | -1.25 ± 0.19 | -0.145 ± 0.28
GUCUAGCAAUAUUACGACAU | -0.643 ± 0.014 | -0.146 ± 0.032
GUCUAGCAAUAUUACGAGUG | -1.99 ± 0.1 | -1.05 ± 0.1
GUCUAGCAAUAUUACGCGCG | -1.36 ± 0.15 | -0.687 ± 0.14
GUCUAGCAAUAUUACGCGUG | -0.894 ± 0.058 | -0.777 ± 0.072
GUCUAGCAAUAUUACGCUAG | -2.97 ± 0.32 | -2.31 ± 0.31
GUCUAGCAAUAUUACGCUUA | -0.87 ± 0.077 | 0.645 ± 0.097
GUCUAGCAAUAUUACGGCGA | -0.49 ± 0.22 | -0.132 ± 0.21
